Assay in all cases: SPR (Biacore T200); receptor immobilized directly on CM5 chip, antibody as analyte at 4.7 µM
Experiment [1] addresses Recombinant Human Fc gamma RIIIB/CD16b Protein (R&D Systems), His-tagged (human) (UniProt O75015).
Experiment [2] has as its target Recombinant Human Fc gamma RIIIA/CD16a protein (R&D Systems), His-tagged (human) (UniProt P08637).
Experiment [3] has as its target Recombinant Human Fc gamma RIIA/CD32a (R167) Protein (R&D Systems), His-tagged (human) (UniProt P12318).
The target of experiment [4] is Recombinant Human Fc gamma RIIB/C (CD32b/c) Protein (R&D Systems), His-tagged (human) (UniProt P31994).
Chain of Recombinant Human Fc gamma RIIB/C (CD32b/c) Protein (R&D Systems), His-tagged (human) (P31994 other isoform, or with tags, fused parts or gaps): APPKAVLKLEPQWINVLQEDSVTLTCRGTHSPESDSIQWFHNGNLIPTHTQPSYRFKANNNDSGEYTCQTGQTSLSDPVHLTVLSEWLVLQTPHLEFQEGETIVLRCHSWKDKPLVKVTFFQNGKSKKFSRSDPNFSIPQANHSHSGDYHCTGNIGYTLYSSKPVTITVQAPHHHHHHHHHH

Chain of Recombinant Human Fc gamma RIIA/CD32a (R167) Protein (R&D Systems), His-tagged (human) (P12318 other isoform, or with tags, fused parts or gaps): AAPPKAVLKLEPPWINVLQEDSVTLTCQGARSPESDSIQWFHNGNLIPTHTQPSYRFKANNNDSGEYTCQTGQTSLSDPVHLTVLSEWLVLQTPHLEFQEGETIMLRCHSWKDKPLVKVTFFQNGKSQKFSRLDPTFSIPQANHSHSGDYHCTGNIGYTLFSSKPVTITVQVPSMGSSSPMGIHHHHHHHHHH
Chain of Recombinant Human Fc gamma RIIIB/CD16b Protein (R&D Systems), His-tagged (human) (O75015 other isoform, or with tags, fused parts or gaps): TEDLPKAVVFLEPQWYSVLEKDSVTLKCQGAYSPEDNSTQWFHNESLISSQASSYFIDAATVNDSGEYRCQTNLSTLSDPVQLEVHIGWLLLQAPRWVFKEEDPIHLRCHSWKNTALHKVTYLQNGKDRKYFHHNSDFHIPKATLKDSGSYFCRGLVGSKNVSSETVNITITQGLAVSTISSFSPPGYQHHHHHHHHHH
Chain of Recombinant Human Fc gamma RIIIA/CD16a protein (R&D Systems), His-tagged (human) (P08637 other isoform, or with tags, fused parts or gaps): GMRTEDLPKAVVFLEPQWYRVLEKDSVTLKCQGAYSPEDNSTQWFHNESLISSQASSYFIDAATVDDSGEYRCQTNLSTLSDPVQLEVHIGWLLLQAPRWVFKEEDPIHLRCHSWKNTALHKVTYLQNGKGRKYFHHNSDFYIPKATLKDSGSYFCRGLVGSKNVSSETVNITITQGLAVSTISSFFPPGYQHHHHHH

Turning to “LALA variant of the anti-CD70 antibody vorsetuzumab (IgG1)”, the binding response (RU) in experiment [1] was determined as 4.5 RU; in experiment [2], 100 RU; in experiment [3], 64 RU; in experiment [4], 18 RU.
“LALA-DG variant of the anti-CD70 antibody vorsetuzumab (IgG1)”: the binding response (RU) in experiment [3] worked out at 8.3 RU.

The values above are taken from patent US20240239915A1.
